Results: US20240109945A1 (UNIVERSITY OF GEORGIA RESEARCH FOUNDATION, published 2024)
Numbering of substitutions follows the chain as printed. Values belong to the binder of their own block, whether it stands above or below them.

Tests used:
Asialofetuin = target: T1, Asialofetuin (bovine, UniProt P12763 19-359, glycoprotein; desialylated form of Fetuin); experiment: Western blot, 1 µg glycoprotein, Fbs1 variant as probe
T1 construct: also called AF; desialylated Asialofetuin
T1 sequence (looked up): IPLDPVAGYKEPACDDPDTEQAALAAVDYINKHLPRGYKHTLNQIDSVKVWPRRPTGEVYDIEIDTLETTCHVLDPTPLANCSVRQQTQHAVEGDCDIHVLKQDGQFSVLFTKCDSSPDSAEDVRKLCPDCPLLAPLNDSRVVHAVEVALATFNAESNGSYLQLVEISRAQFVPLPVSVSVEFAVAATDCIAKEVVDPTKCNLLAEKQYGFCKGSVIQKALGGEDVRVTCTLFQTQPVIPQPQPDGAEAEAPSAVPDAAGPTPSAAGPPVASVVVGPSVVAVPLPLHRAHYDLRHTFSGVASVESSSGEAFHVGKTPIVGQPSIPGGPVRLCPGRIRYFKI
Procedure: (§1) Lanes of each blot are labelled to show results for samples (1 μg each) of glycoproteins Asialofetuin, Fetuin, RNase B, Ovalbumin, Horse Radish Peroxidase, and IgG polyclonal antibody from rabbit, and a non-glycosylated protein RNase A, that were separated by SDS-PAGE, blotted on nitrocellulose membrane, and probed with Fbs1-1 (left blot) or Fbs1-2 (right blot).

Fetuin = target: T2, Fetuin (bovine, UniProt P12763 19-359, heavily sialylated glycoprotein); experiment: as above
T2 sequence (looked up): T1 sequence (looked up)
Procedure: as §1

binding result (Asialofetuin): binds | binding result (Fetuin): binds
B1: Variant Fbs1-1 (designed binder)
chain: MGSSHHHHHHHHSSGENLYFQSHMASQQEGLVPEGSADEERDHWQQFYFLSKRRRNLLRNPCGEEDLEGWSDVEHGGDGWRVEELPGDNGVEFTQDDSVKKYFASSFEWCRKAQVIDLQAEGYWEELLDTTQPAIVVKDWYSGRTDAGSLYELTVRLLSENEDVLAEFATGQVAVPEDGSWMEISHTFIDYGPGVRFVRFEHGGQDSVYWKGWFGARVTNSSVWVEP
notes: Expressed in E. coli and purified by IMAC

binding result (Asialofetuin): binds | binding result (Fetuin): binds
B2: Variant Fbs1-2 (designed binder)
chain: B1 chain with F107Y, E108R
